Reference: the supplement of paper PMC9732359
± gives the uncertainty stated by the source.

Assay: protein stability index of a GFP-peptide fusion (yeast GPS) (PSI 1-4); higher = more stable; sorted into four equal gates, so the index is relative within each strain
Procedure, shortened: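 Each library plasmid carries Cherry plus GFP with a tiled 17-residue yeast protein peptide fused downstream, and the pooled library was carried in yeast. Mid-log cultures in leucine-free medium were sorted into four equal gates by GFP/Cherry ratio. Reads from Illumina sequencing of PCR-amplified plasmids from each gate were assigned to strains by barcodes. Per peptide, the protein stability index was computed as the summed products of gate read frequency and gate number.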

Sequence | protein stability index (doa10∆) | protein stability index (pdr5∆) | protein stability index (san1∆) | protein stability index (ubr1∆)
LIGRPPLLVPGMTPCTV [FAS1] | 1.32 ± 0.071 | 1.82 ± 0.079 | 1.81 ± 0.11 | 2.15 ± 0.06
FFRNKLKYHDFLRKATA [RPL16B] | 2.02 ± 0.085 | 2.48 ± 0.086 | 2.4 ± 0.079 | 2.23 ± 0.072
GIDPDETVPDNVKTSVS [RPO31] | 2.83 ± 0.22 | – | – | –
TLKNRGLPLGIAEEKMW [YGR119C/NUP57] | 1.8 ± 0.078 | 1.7 ± 0.078 | 1.44 ± 0.29 | 1.89 ± 0.039
QLIKVAVHNGGRKHVAA [RPL9A] | 2.47 ± 0.091 | 2.85 ± 0.087 | 2.66 ± 0.097 | 2.72 ± 0.03
EIIFLGAQIVSKQIFTH [ARP9] | 1.22 ± 0.1 | 1.33 ± 0.075 | 1.14 ± 0.14 | 1.25 ± 0.036
NGASVPINLHPSKLVIT [RPL26A] | 1.75 ± 0.058 | 1.83 ± 0.06 | 1.96 ± 0.067 | 1.41 ± 0.05
LLRSRLATRRVLQEYRL [RPO21] | 2.62 ± 0.067 | 2.07 ± 0.083 | 2.27 ± 0.11 | 1.63 ± 0.072
DDLIHFTLKQWNRLTIS [COR1] | 1.3 ± 0.052 | 1.34 ± 0.041 | 1.27 ± 0.066 | 1.33 ± 0.043
TNFKEEITDASLNLQYV [YML103C/NUP188] | 3.08 ± 0.12 | 3.06 ± 0.084 | 3.18 ± 0.13 | 3.06 ± 0.087
PENITKREASRGFFDIL [MCD1] | 3.1 ± 0.08 | 3.01 ± 0.082 | 3.13 ± 0.062 | 3.21 ± 0.058
GRHHQEEELFQEMIEIS [SRP54] | 3.21 ± 0.058 | 3.3 ± 0.047 | 3.41 ± 0.038 | 3.35 ± 0.058
LPSEDSRAQILQIHSRK [RPT5] | 2.21 ± 0.072 | 2.39 ± 0.049 | 2.55 ± 0.064 | 2.89 ± 0.04
GKIRGVEDDLVTVQTEL [SMC2] | 3.1 ± 0.12 | 2.62 ± 0.068 | 2.48 ± 0.077 | 2.85 ± 0.076
ANNNMNDELVELLANKC [GRR1] | 2.79 ± 0.061 | 2.92 ± 0.044 | 2.78 ± 0.059 | 2.99 ± 0.046
NKINSRNSWNFALIDYF [BRN1] | 2.13 ± 0.2 | 1.27 ± 0.075 | 1.11 ± 0.11 | 1.1 ± 0.073
LANNVESKLRDDLERLK [RPS18A] | 3.45 ± 0.16 | 3.27 ± 0.16 | 2.97 ± 0.24 | 3.41 ± 0.049
LKEVLYNDSATSGEAAA [RPN2] | 1.45 ± 0.057 | 1.52 ± 0.063 | 1.86 ± 0.11 | 1.28 ± 0.056
EGKYIVDVAKDINVKDL [RPT6] | 3.44 ± 0.12 | 3.21 ± 0.11 | 2.67 ± 0.14 | 3.24 ± 0.093
GFVRNSFFSGLSPPEFL [RPO31] | 2.99 ± 0.077 | 2.95 ± 0.079 | 3.11 ± 0.08 | 3.13 ± 0.052
TEQQIEVPEGVTVSIKS [RPL9A] | 2.46 ± 0.069 | 2.3 ± 0.051 | 1.99 ± 0.073 | 2.85 ± 0.043
FGYPETIANSIILHFAN [YMR153W/NUP53] | 2.05 ± 0.062 | 2.23 ± 0.067 | 1.88 ± 0.09 | 2.15 ± 0.066
IELTSYESIATYASVTG [RPN7] | 1.1 ± 0.077 | 1.31 ± 0.068 | 1.11 ± 0.22 | 1.15 ± 0.12
QKYVGEGARMVRELFEM [RPT1] | – | – | – | 2.92 ± 0.24
EIDVENHDRINISNNLQ [RPN8] | 3.21 ± 0.061 | 3.26 ± 0.082 | 3.32 ± 0.043 | 3.21 ± 0.054
SVVRGNTFKVLSKFFFF [COB] | 2.11 ± 0.065 | 2.2 ± 0.13 | 2.44 ± 0.093 | 1.83 ± 0.069
SNIMSDSKKIKVDSPDD [GAL11] | 2.9 ± 0.078 | 2.73 ± 0.079 | 3.03 ± 0.072 | 2.88 ± 0.061

Sequence | protein stability index (doa10∆) | protein stability index (pdr5∆) | protein stability index (san1∆) | protein stability index (ubr1∆)
NAEAKGLDATKLYVSHI [RPL17A] | 3.23 ± 0.16 | 3.13 ± 0.092 | 3.01 ± 0.05 | 3.03 ± 0.071
TFTKKCLENARSQISEK [SIR4] | 3.2 ± 0.063 | 3.12 ± 0.057 | 3.15 ± 0.05 | 3.07 ± 0.041
MNGNTNANTVFAGSNNQ [YOR098C/NUP1] | 2.63 ± 0.12 | 3.27 ± 0.12 | 3.31 ± 0.16 | 3.26 ± 0.085
QLRKEIQLLDENVGTRL [MED11] | – | 3.09 ± 0.19 | 3.57 ± 0.11 | –
IRLANESSELNKDSIEE [CSN12] | 3.22 ± 0.084 | 3.43 ± 0.079 | 3.34 ± 0.065 | 3.37 ± 0.083
FLTNELIRLQMEKLDAK [SWI3] | 2.97 ± 0.11 | 2.98 ± 0.085 | 3.14 ± 0.051 | 2.96 ± 0.078
LPSWSLGKWYSKEDYET [ARP7] | 1.62 ± 0.17 | 1.12 ± 0.14 | – | 1.09 ± 0.11
CDDESGDNEYITLRTSG [MCD1] | 3.29 ± 0.16 | 3.29 ± 0.099 | 3.04 ± 0.072 | 3.47 ± 0.061
DMIKCFLPKLNSVRNSL [NUT1] | 2.52 ± 0.053 | 2.48 ± 0.089 | 2.47 ± 0.075 | 2.18 ± 0.035
SELQPQNRSLQEHNIQD [SNF2] | 2.81 ± 0.041 | 3.24 ± 0.05 | 3.08 ± 0.04 | 3.09 ± 0.038
LGFTPGELRSYLKGATG [FAS1] | 3.26 ± 0.15 | 3.66 ± 0.28 | 3.33 ± 0.17 | 3.41 ± 0.17
PNPTPSMINSVSPTNVM [PGD1] | 2.21 ± 0.032 | 2.55 ± 0.037 | 2.32 ± 0.03 | 2.27 ± 0.028
PQQAQQQPNPLHGLTPT [GAL11] | 3 ± 0.068 | 2.95 ± 0.042 | 2.83 ± 0.051 | 3.05 ± 0.035
QKNFMDQFQWILRKPGK [RRI2] | 2.42 ± 0.14 | 2.66 ± 0.12 | 2.67 ± 0.15 | 2.49 ± 0.091
SAGLFGSKPAGGTSLFG [YGL172W/NUP49] | 2.6 ± 0.081 | 2.9 ± 0.1 | 2.27 ± 0.098 | 2.66 ± 0.047
IIVKILYYRPHINKKSQ [GRR1] | 1.66 ± 0.096 | 2.63 ± 0.11 | 1.23 ± 0.18 | 2.51 ± 0.11
VEKTEKPKKPKGRAYKR [RPS30A] | 3.16 ± 0.098 | 3.24 ± 0.091 | 3.07 ± 0.06 | 3.05 ± 0.07
VKSKIQDKEGIPPDQQR [RPS31] | 3.08 ± 0.076 | 3.48 ± 0.075 | 3.41 ± 0.051 | 3.44 ± 0.061
EQKLVDLLKFENISLAE [BRR2] | 2.65 ± 0.065 | 2.93 ± 0.066 | 2.71 ± 0.049 | 2.58 ± 0.055
NDSFKGLITNKMWFDVQ [PRP8] | 2.98 ± 0.16 | 2.99 ± 0.085 | 3.03 ± 0.11 | 3.08 ± 0.087
SNASQMGNTGSGGYDNA [RPB3] | 3.43 ± 0.27 | 3.32 ± 0.17 | 3.52 ± 0.2 | 2.5 ± 0.15
GTLEYGTCFGGSKLEDM [RET1] | 3.17 ± 0.072 | 3.16 ± 0.072 | 3.36 ± 0.061 | 3.29 ± 0.065
YQRKRLVTQHKAKYNTP [RPL5] | 3.21 ± 0.3 | 2.8 ± 0.2 | – | –
FVRQAAMIALSMILIQQ [RPN2] | 1.35 ± 0.083 | 1.75 ± 0.17 | 1.48 ± 0.19 | 1.82 ± 0.14
LSESDKKSKLISLYLLN [RPN12] | 2.21 ± 0.17 | 3 ± 0.1 | 2.07 ± 0.21 | 2.31 ± 0.063
ESFAELMTKLNSFKLFK [RPC17] | 3.03 ± 0.1 | 2.71 ± 0.086 | 1.59 ± 0.099 | 2.06 ± 0.081
